According to the supplement of paper PMC7125110:
± gives the standard error. Variants at the floor of the assay were thinned out.

B1: glmS ribozyme (parent)
chain: AUAAAAGCGCCAGAACUACAGAAAUGUAGUUGACGAGGAGGAGGUUUAUCGAAUUUUCGGCGGAUGCCUCCAAA

Columns and labels:
Conditions in all cases: with glucosamine-6-phosphate
glucosamine-6-phosphate [1] = variants of: B1; assay: self-cleavage kobs at 640 uM GlcN6P; higher = faster cleavage; RNA array
Summary of the method: (§1)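 Barcoded ribozyme variants, transcribed in situ by E. coli RNA polymerase on sequenced MiSeq chips, were followed via a hybridised Cy3 probe at 37 °C. Glucosamine-6-phosphate ranged from 40 μM to 10 mM in HEPES/KCl/Mg(OAc)2 buffer. kobs came from decay fits to per-tile medians, and kcat and KM from weighted Michaelis–Menten fits.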

glucosamine-6-phosphate [2] = variants of: B1; assay: self-cleavage kobs at 2500 uM GlcN6P; higher = faster cleavage; RNA array
Summary of the method: as §1

glucosamine-6-phosphate [3] = variants of: B1; assay: self-cleavage kobs at 160 uM GlcN6P; higher = faster cleavage; RNA array
Summary of the method: as §1

glucosamine-6-phosphate [4] = variants of: B1; assay: self-cleavage kobs at 10000 uM GlcN6P; higher = faster cleavage; RNA array
Summary of the method: as §1

Row | Variant | self-cleavage kobs at 640 uM GlcN6P (glucosamine-6-phosphate [1]) [s⁻¹] | self-cleavage kobs at 2500 uM GlcN6P (glucosamine-6-phosphate [2]) [s⁻¹] | self-cleavage kobs at 160 uM GlcN6P (glucosamine-6-phosphate [3]) [s⁻¹] | self-cleavage kobs at 10000 uM GlcN6P (glucosamine-6-phosphate [4]) [s⁻¹]
1 | U2A G44U | 0.000101 ± 1.5e-05 | 0.000228 ± 6.3e-05 | – | –
2 | A6G C10U A14G C34U U46G U57A | < 1e-05 | – | – | –
3 | A42U A53G A64C | < 1e-05 | – | < 1e-05 | –
4 | A39U G44C A64U | < 1e-05 | – | < 1e-05 | –
5 | G41U G43U G51U | – | < 1e-05 | < 1e-05 | –
6 | C50G A64G | 0.000105 ± 2.1e-05 | – | 0.000518 ± 0.00017 | 2.48e-05 ± 9.4e-06
7 | A6G U30G G38U U55G | < 1e-05 | < 1e-05 | – | –
8 | A6G A12C U55G | 7.46e-05 ± 1.3e-05 | 0.000177 ± 3.7e-05 | – | –
9 | G44U G59U | < 1e-05 | < 1e-05 | < 1e-05 | < 1e-05
10 | A6G A52U G60U | < 1e-05 | < 1e-05 | – | –
11 | A6U C16U G43U U65G | < 1e-05 | – | – | –
12 | A6C G29C A36U G43U G66A | < 1e-05 | – | – | –
13 | A53C G63C | – | < 1e-05 | < 1e-05 | < 1e-05
14 | A6C G38U G62C C70U | < 1e-05 | – | – | –
15 | G44C G62C G66A | < 1e-05 | – | < 1e-05 | –
16 | G44U C50U C71A | < 1e-05 | – | < 1e-05 | –
17 | A6G A36C G37U G40A C61A U65A | < 1e-05 | < 1e-05 | – | –
18 | U45A C67G C68A | 0.000177 ± 4.1e-05 | 0.000173 ± 4.7e-05 | 7.91e-05 ± 1.9e-05 | –
19 | A6U C34U G40C G59C | < 1e-05 | – | – | –
20 | G40A G51U | < 1e-05 | – | < 1e-05 | –
21 | U54G A64G C68A | 6.86e-05 ± 1.5e-05 | 0.000107 ± 2.7e-05 | 5.71e-05 ± 2.2e-05 | –

Row | Variant | self-cleavage kobs at 640 uM GlcN6P (glucosamine-6-phosphate [1]) [s⁻¹] | self-cleavage kobs at 2500 uM GlcN6P (glucosamine-6-phosphate [2]) [s⁻¹] | self-cleavage kobs at 160 uM GlcN6P (glucosamine-6-phosphate [3]) [s⁻¹] | self-cleavage kobs at 10000 uM GlcN6P (glucosamine-6-phosphate [4]) [s⁻¹]
22 | A6C G13U C50G G62A C68U | 0.000276 ± 0.0001 | 0.000212 ± 9.7e-05 | – | –
23 | A6U C11U U31C G40A G44A U55A | < 1e-05 | – | – | –
24 | A42C U47A | – | < 1e-05 | < 1e-05 | –
25 | A52C A64C | < 1e-05 | – | < 1e-05 | < 1e-05
26 | A6G C50U C61U | < 1e-05 | < 1e-05 | – | –
27 | A42C U54G | – | – | < 1e-05 | –
28 | U57C G60A | < 1e-05 | < 1e-05 | < 1e-05 | –
29 | A6U A12G A39G G63C | < 1e-05 | < 1e-05 | – | –
30 | A6G G32U G35U G51A | < 1e-05 | – | – | –
31 | G40U G44U C58G | – | – | < 1e-05 | –
32 | A6C G38A A52U C70U | < 1e-05 | – | – | –
33 | A6C G44A A64G | < 1e-05 | – | – | –
34 | C50G U56A C58G | 0.00041 ± 0.00014 | 6.12e-05 ± 2.4e-05 | 9.66e-05 ± 4.4e-05 | –
35 | G43A C58U | < 1e-05 | – | < 1e-05 | < 1e-05
36 | A6G G40U C67A | < 1e-05 | – | – | –
37 | A6G A52G G60A | < 1e-05 | < 1e-05 | – | –
38 | A6G A15C C34A A36U | < 1e-05 | < 1e-05 | – | –
39 | A6G C8U G37C U54C U69C | < 1e-05 | < 1e-05 | – | –
40 | G41A C67U | < 1e-05 | < 1e-05 | < 1e-05 | –
41 | A6U C11A A33G U47C U49A G51U A53U G59U | < 1e-05 | < 1e-05 | – | –
42 | G66U C68U C70U | – | 0.000104 ± 2.7e-05 | 7.05e-05 ± 2.3e-05 | –

Row | Variant | self-cleavage kobs at 640 uM GlcN6P (glucosamine-6-phosphate [1]) [s⁻¹] | self-cleavage kobs at 2500 uM GlcN6P (glucosamine-6-phosphate [2]) [s⁻¹] | self-cleavage kobs at 160 uM GlcN6P (glucosamine-6-phosphate [3]) [s⁻¹] | self-cleavage kobs at 10000 uM GlcN6P (glucosamine-6-phosphate [4]) [s⁻¹]
43 | G41U C58U | < 1e-05 | – | < 1e-05 | –
44 | G40U G60A C70A | – | < 1e-05 | < 1e-05 | –
45 | U49C A53G | < 1e-05 | – | < 1e-05 | < 1e-05
46 | A6G A15U G32C U57G G59U | < 1e-05 | – | – | –
47 | A6G G9A G29A G32U G40U | < 1e-05 | – | – | –
48 | G43A A48C | < 1e-05 | – | < 1e-05 | < 1e-05
49 | A6C G9C G41U | < 1e-05 | < 1e-05 | – | –
50 | C50U U56A | – | – | < 1e-05 | –
51 | A48G G62C | – | – | < 1e-05 | < 1e-05
52 | U55G G63C | – | < 1e-05 | < 1e-05 | –
53 | G44C U54A C68U | – | – | < 1e-05 | –
54 | A6C C10A G32A G51A A52G A53G G59C G63U C68A | 0.000154 ± 5.6e-05 | – | – | –
55 | C50U C67G | 2.88e-05 ± 1.2e-05 | 2.44e-05 ± 1.1e-05 | 0.000148 ± 6.3e-05 | –
56 | A6G G9A G41U A42U C70A | < 1e-05 | < 1e-05 | – | –
57 | A52G A64C | < 1e-05 | < 1e-05 | < 1e-05 | –
58 | A6C U54G C70U | 6.45e-05 ± 2.2e-05 | – | – | –
59 | A52U U57A C68U | 0.000196 ± 5.5e-05 | 0.000613 ± 0.00014 | 8.55e-05 ± 2.1e-05 | –
60 | A52C C58A | < 1e-05 | – | < 1e-05 | < 1e-05
61 | A48C G51C | < 1e-05 | – | < 1e-05 | –
